Experimental data reported in US20140286957A1 (Teva, published 2014).
Where a chain is given by its changes, count along the chain named.

B1: 401.11.180 (antibody, IgG4, V domains shown)
VH: QVQLVGSGGGLVKPGRSLRLSCAASGFTFDDYAMHWVRQAPGKGLEWVATIIWNSAIIGYADSVKGRFIVSRDNAKNSLYLQMNSLRAEDTALYYCAKDLCSSGGCPEGYFDSWGQGTLVTVSS
VL: DIQMTQSPSSVSASVGDRVTITCRASQHISSWLAWYQQKPGKAPKLLIYAASSLQSGVPSRFSGSGSGTDFTLTISSLQPEDFATYYCQQANRFPLTFGGGTKLEIKR
B2: 401.11.131 (antibody, name in Kabat numbering, V domains shown)
VH: B1 VH with T91M, L100M, G104S, E108D, S113D
VL: B1 VL with K45N, P59S
B3: 401.11.136 (antibody, name in Kabat numbering, V domains shown)
VH: B1 VH with T91M, L100M, G104S, E108D, S113K
VL: B1 VL with K45N, P59S
B4: 401.11.124 (antibody, name in Kabat numbering, V domains shown)
VH: B1 VH with T91M, L100M, G104S, E108D, Y110W
VL: B1 VL with K45N, P59S
B5: 401.11.133 (antibody, name in Kabat numbering, V domains shown)
VH: B1 VH with T91M, L100M, G104S, E108D, S113W
VL: B1 VL with K45N, P59S
B6: 401.11.139 (antibody, name in Kabat numbering, V domains shown)
VH: B1 VH with T91M, L100M, G104S, E108D, S113G
VL: B1 VL with K45N, P59S
B7: 401.11.127 (antibody, name in Kabat numbering, V domains shown)
VH: B1 VH with T91M, L100M, G104S, E108D, Y110Q
VL: B1 VL with K45N, P59S
B8: 401.11.132 (antibody, name in Kabat numbering, V domains shown)
VH: B1 VH with T91M, L100M, G104S, E108D, S113T
VL: B1 VL with K45N, P59S
B9: 401.11.134 (antibody, name in Kabat numbering, V domains shown)
VH: B1 VH with T91M, L100M, G104S, E108D, S113L
VL: B1 VL with K45N, P59S
B10: 401.11.138 (antibody, name in Kabat numbering, V domains shown)
VH: B1 VH with T91M, L100M, G104S, E108D, S113Y
VL: B1 VL with K45N, P59S
B11: 401.11.125 (antibody, name in Kabat numbering, V domains shown)
VH: B1 VH with T91M, L100M, G104S, E108D, Y110F
VL: B1 VL with K45N, P59S
B12: 401.11.135 (antibody, name in Kabat numbering, V domains shown)
VH: B1 VH with T91M, L100M, G104S, E108D, S113V
VL: B1 VL with K45N, P59S
B13: 401.11.137 (antibody, name in Kabat numbering, V domains shown)
VH: B1 VH with T91M, L100M, G104S, E108D, S113R
VL: B1 VL with K45N, P59S
B14: 401.11.126 (antibody, name in Kabat numbering, V domains shown)
VH: B1 VH with T91M, L100M, G104S, E108D, Y110S
VL: B1 VL with K45N, P59S
B15: 401.11.38 (antibody, name in Kabat numbering, V domains shown)
VH: B1 VH with T91M, D99S, L100M, G104S, E108D
VL: B1 VL with K45N, P59S
B16: 401.11.46 (antibody, name in Kabat numbering, V domains shown)
VH: B1 VH with T91M, L100F, G104S, E108D
VL: B1 VL with K45N, P59S
B17: 401.11.66 (antibody, name in Kabat numbering, V domains shown)
VH: B1 VH with T91M, L100M, S102R, G104S, E108D
VL: B1 VL with K45N, P59S
B18: 401.11.80 (antibody, name in Kabat numbering, V domains shown)
VH: B1 VH with T91M, L100M, G104W, E108D
VL: B1 VL with K45N, P59S
B19: 401.11.67 (antibody, name in Kabat numbering, V domains shown)
VH: B1 VH with T91M, L100M, S102Y, G104S, E108D
VL: B1 VL with K45N, P59S
B20: 401.11.85 (antibody, name in Kabat numbering, V domains shown)
VH: B1 VH with T91M, L100M, G104Y, E108D
VL: B1 VL with K45N, P59S
B21: 401.11.49 (antibody, name in Kabat numbering, V domains shown)
VH: B1 VH with T91M, L100S, G104S, E108D
VL: B1 VL with K45N, P59S
B22: 401.11.68 (antibody, name in Kabat numbering, V domains shown)
VH: B1 VH with T91M, L100M, S102G, G104S, E108D
VL: B1 VL with K45N, P59S
B23: 401.11.63 (antibody, name in Kabat numbering, V domains shown)
VH: B1 VH with T91M, L100M, S102L, G104S, E108D
VL: B1 VL with K45N, P59S
B24: 401.11.44 (antibody, name in Kabat numbering, V domains shown)
VH: B1 VH with T91M, L100K, G104S, E108D
VL: B1 VL with K45N, P59S
B25: 401.11.71 (antibody, name in Kabat numbering, V domains shown)
VH: B1 VH with T91M, L100M, S103W, G104S, E108D
VL: B1 VL with K45N, P59S
B26: 401.11.77 (antibody, name in Kabat numbering, V domains shown)
VH: B1 VH with T91M, L100M, S103G, G104S, E108D
VL: B1 VL with K45N, P59S
B27: 401.11.65 (antibody, name in Kabat numbering, V domains shown)
VH: B1 VH with T91M, L100M, S102K, G104S, E108D
VL: B1 VL with K45N, P59S
B28: 401.11.75 (antibody, name in Kabat numbering, V domains shown)
VH: B1 VH with T91M, L100M, S103R, G104S, E108D
VL: B1 VL with K45N, P59S
B29: 401.11.64 (antibody, name in Kabat numbering, V domains shown)
VH: B1 VH with T91M, L100M, S102V, G104S, E108D
VL: B1 VL with K45N, P59S
B30: 401.11.72 (antibody, name in Kabat numbering, V domains shown)
VH: B1 VH with T91M, L100M, S103L, G104S, E108D
VL: B1 VL with K45N, P59S
B31: 401.11.73 (antibody, name in Kabat numbering, V domains shown)
VH: B1 VH with T91M, L100M, S103V, G104S, E108D
VL: B1 VL with K45N, P59S
B32: 401.11.81 (antibody, name in Kabat numbering, V domains shown)
VH: B1 VH with T91M, L100M, G104L, E108D
VL: B1 VL with K45N, P59S
B33: 401.11.50 (antibody, name in Kabat numbering, V domains shown)
VH: B1 VH with T91M, L100G, G104S, E108D
VL: B1 VL with K45N, P59S
B34: 401.11.84 (antibody, name in Kabat numbering, V domains shown)
VH: B1 VH with T91M, L100M, G104R, E108D
VL: B1 VL with K45N, P59S
B35: 401.11.82 (antibody, name in Kabat numbering, V domains shown)
VH: B1 VH with T91M, L100M, G104V, E108D
VL: B1 VL with K45N, P59S
B36: 401.11.69 (antibody, name in Kabat numbering, V domains shown)
VH: B1 VH with T91M, L100M, S103D, G104S, E108D
VL: B1 VL with K45N, P59S
B37: 401.11.70 (antibody, name in Kabat numbering, V domains shown)
VH: B1 VH with T91M, L100M, S103T, G104S, E108D
VL: B1 VL with K45N, P59S
B38: 401.11.83 (antibody, name in Kabat numbering, V domains shown)
VH: B1 VH with T91M, L100M, G104K, E108D
VL: B1 VL with K45N, P59S
B39: 401.11.45 (antibody, name in Kabat numbering, V domains shown)
VH: B1 VH with T91M, L100R, G104S, E108D
VL: B1 VL with K45N, P59S
B40: 401.11.74 (antibody, name in Kabat numbering, V domains shown)
VH: B1 VH with T91M, L100M, S103K, G104S, E108D
VL: B1 VL with K45N, P59S
B41: 401.11.61 (antibody, name in Kabat numbering, V domains shown)
VH: B1 VH with T91M, L100M, S102T, G104S, E108D
VL: B1 VL with K45N, P59S
B42: 401.11.79 (antibody, name in Kabat numbering, V domains shown)
VH: B1 VH with T91M, L100M, G104T, E108D
VL: B1 VL with K45N, P59S
B43: 401.11.159 (antibody, IgG4, V domains shown)
VH: B1 VH with Q1E, G6E, K13Q, T91M, L100M, E108D
VL: B1 VL with P59S
B44: 401.11.151 (antibody, IgG4, V domains shown)
VH: B1 VH with Q1E, G6E, K13Q, L100M, G104S, E108D
VL: B1 VL

These binders were tested against T1, Human CD1d on cells (human, UniProt P15813 20-335) (assay: cell-based or functional assay).
T1 sequence (looked up): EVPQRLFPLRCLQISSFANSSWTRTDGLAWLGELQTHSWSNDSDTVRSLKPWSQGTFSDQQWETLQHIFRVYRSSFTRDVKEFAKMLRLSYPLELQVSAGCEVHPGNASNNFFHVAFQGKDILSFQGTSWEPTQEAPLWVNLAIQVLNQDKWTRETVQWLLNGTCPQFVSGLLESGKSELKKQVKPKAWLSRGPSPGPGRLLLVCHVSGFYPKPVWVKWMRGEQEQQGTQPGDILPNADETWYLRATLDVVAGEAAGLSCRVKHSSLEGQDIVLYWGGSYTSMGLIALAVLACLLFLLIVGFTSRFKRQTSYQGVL

Binder | NKT IFN-γ EC50 (moDC) [ng/mL] | NKT IL-4 EC50 (moDC) [ng/mL] | NKT IL-5 EC50 (moDC) [ng/mL] | NKT IL-13 EC50 (moDC) [ng/mL]
B1 | 49.5 | 1.31 | 3.35 | 4.09

The binders below were run against T2, Human CD1d/β2M (human, UniProt P15813 20-301; P61769 21-119) (assay: SPR, transfection supernatant).
T2 construct: also called hCD1d; recombinant human CD1d

Binder | Kd [nM]
B2 | 0.2
B3 | < 0.01
B4 | 1.38
B5 | 0.167
B6 | 0.594
B7 | 2.7
B8 | 0.569
B9 | 0.532
B10 | 0.171
B11 | 0.535
B12 | 0.421
B13 | 0.938
B14 | 0.0313

Biological target: T2, Human CD1d/β2M
Test: SPR, transfection supernatant
Remark: another data set of the same source

Binder | binding result | Kd [nM]
B15 | no binding | –
B16 | – | 0.303
B17 | – | 0.156
B18 | – | 2.34
B19 | – | 0.0485
B20 | – | 82.3
B21 | – | 0.401
B22 | – | 1.17
B23 | – | 0.189
B24 | – | 0.431
B25 | – | < 0.01
B26 | – | 0.272
B27 | – | 1.67
B28 | no binding | –
B29 | – | 0.23
B30 | – | 0.649
B31 | – | 0.527
B32 | – | 0.552
B33 | – | 0.187
B34 | – | 1.12
B35 | no binding | –
B36 | – | 0.144
B37 | – | 0.549
B38 | – | 1.55
B39 | – | 0.249
B40 | – | 0.0933
B41 | – | 0.242
B42 | no binding | –

Biological target: T1, Human CD1d on cells
Test: cell-based or functional assay
Remark: another data set of the same source

Binder | NKT IL-4 EC50 (moDC) [ng/mL] | NKT IL-13 EC50 (moDC) [ng/mL]
B43 | 1.69 | 10.5
B44 | 12.9 | 57.5
